Consider six molecules from publication PMC6881172, “Allosteric modulation of nucleoporin assemblies by intrinsically disordered regions” (Science Advances, 2019).

As a reminder, the stoichiometry N is the number of molecules, sites or subunits per partner or assembly.

To fix the notation:
T1: Kap121 (full-length) (Saccharomyces cerevisiae, UniProt P32337 1-1089)
T1 construct: Kap121 (karyopherin), Saccharomyces cerevisiae, full-length; source: E. coli BL21-CodonPlus(DE3)-RIL, purified (HisTrap HP, TEV cleavage, HiTrap Q, Superdex 200); not shown: SUMO-His6, N-terminal, cleaved
T1 sequence (looked up): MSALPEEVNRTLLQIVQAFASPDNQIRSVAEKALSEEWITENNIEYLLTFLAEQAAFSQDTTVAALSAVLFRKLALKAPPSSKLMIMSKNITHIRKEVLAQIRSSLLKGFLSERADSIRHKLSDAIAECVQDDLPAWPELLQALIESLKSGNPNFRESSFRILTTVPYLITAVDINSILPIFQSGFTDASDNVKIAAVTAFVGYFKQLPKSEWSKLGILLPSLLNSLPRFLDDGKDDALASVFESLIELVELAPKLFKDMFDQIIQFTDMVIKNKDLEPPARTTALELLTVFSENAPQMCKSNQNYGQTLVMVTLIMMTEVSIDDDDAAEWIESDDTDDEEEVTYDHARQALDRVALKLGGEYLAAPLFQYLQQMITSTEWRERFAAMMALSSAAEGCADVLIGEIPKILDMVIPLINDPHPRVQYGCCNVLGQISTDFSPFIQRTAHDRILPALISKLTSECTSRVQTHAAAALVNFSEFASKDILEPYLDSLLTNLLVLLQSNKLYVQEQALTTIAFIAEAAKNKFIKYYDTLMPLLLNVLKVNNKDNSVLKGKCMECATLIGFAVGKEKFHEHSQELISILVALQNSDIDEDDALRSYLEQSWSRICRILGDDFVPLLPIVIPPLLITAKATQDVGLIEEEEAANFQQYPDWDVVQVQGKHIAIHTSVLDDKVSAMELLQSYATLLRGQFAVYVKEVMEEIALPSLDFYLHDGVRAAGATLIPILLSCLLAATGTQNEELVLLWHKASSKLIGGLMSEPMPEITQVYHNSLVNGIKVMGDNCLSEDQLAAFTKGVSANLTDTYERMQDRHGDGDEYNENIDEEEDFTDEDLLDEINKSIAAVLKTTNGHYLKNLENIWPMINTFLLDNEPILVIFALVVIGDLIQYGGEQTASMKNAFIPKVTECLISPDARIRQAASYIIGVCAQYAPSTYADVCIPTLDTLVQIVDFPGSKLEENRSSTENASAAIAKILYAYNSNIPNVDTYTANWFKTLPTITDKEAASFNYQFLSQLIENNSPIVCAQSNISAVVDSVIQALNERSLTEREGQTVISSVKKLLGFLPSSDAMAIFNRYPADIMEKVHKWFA

T2: Nup53 fragment 53NTD (N-terminal IDR) (Saccharomyces cerevisiae)
T2 chain: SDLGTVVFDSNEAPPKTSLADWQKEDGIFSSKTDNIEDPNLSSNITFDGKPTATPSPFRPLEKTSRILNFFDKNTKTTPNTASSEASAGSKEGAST

T3: Kap121 (full-length) (Saccharomyces cerevisiae), P32337
T3 chain: T1 sequence (looked up)

B1: Nup53 fragment 53CTD (domain or fragment)
chain: RNAEFKVSKNSTSFKNPRRLEIKDGRSLFLRNRGKIHS
B2: Nic96 fragment (domain or fragment)
chain: GNNILNSNESRLNVNENNILREKFENYARIVFQFNNSRQANGNFDIANEFISILSSANGTRNAQLLESWKILESMKSKDINIVEVGKQYLEQQFLQYTDNLYKKNMNEGLATNVNKIKSFIDTKLKKADKSWKISNLTVINGVPIWALIFYLLRAGLIKEALQVLVENKANIKKVEQSFLTYFKAYASSKDHGLPVEYSTKLHTEYNQHIKSSLDGDPYRLAVYKLIGRCDLSRKNIPAVTLSIEDWLWMHLMLIKEKDAENDPVYERYSLEDFQNIIISYGPSRFSNYYLQTLLLSGLYGLAIDYTYTFSEMDAVHLAIGLASLKLFKIDSSTRLTKKPKRDIRFANILANYTKSFRYSDPRVAVEYLVLITLNEGPTDVELCHEALRELVLETKEFTVLLGKIGRDGARIPGVIEERQPLLHVRDEKEFLHTITEQAARRADEDGRIYDSILLYQLAEEYDIVITLVNSLLSDTLSASDLDQPLVGPDDNSETNPVLLARRMASIYFDNAGISRQIHVKNKEICMLLLNISSIRELYFNKQWQETLSQMELLDLLPFSDELSARKKAQDFSNLDDNIVKNIPNLLIITLSCISNMIHILNESKYQSSTKGQQIDSLKNVARQCMIYAGMIQYRMPRETYSTLINIDVSL
B3: Nup53 C-terminal IDR (53C) (domain or fragment)
chain: KKSEEIINNKTSSQTSLSSKDLSNYRKTEGIFEKAKAKAVTSKVRNAEFKVSKNSTSFKNPRRLEIKDGRSLFLRNRGKIHS
modifications: not checked
B4: Nup157 fragment 157N (domain or fragment)
chain: MYSTPLKKRIDYDRETFTASASLGGNRLRNRPRDDQNNGKPNLSSRSFLSERKTRKDVLNKYGEAGNTIESELRDVTTHVKISGLTSSEPLQLASEFVQDLSFRDRNTPILDNPDYYSKGLDYNFSDEVGGLGAFTPFQRQQVTNIPDEVLSQVSNTEIKSDMGIFLELNYCWITSDNKLILWNINNSSEYHCIDEIEHTILKVKLVKPSPNTFVSSVENLLIVATLFDIYILTISFNDRTHELNIFNTGLKVNVTGFNVSNIISYERTGQIFFTGATDGVNVWELQYNCSENLFNSKSNKICLTKSNLANLLPTKLIPSIPGGKLIQKVLEGDAGTEEETISQLEVDQSRGVLHTLSTKSIVRSYLITSNGLVGPVLIDAAHIRRGMNALGVKNSPLLSNRAFKIAKIVSISMCENNDLFLAVITTTGVRLYFKGSISRRSIGSLKLDSVKFPPTSISSSLEQNKSFIIGHHPLNTHDTGPLSTQKASSTYINTTCASTIISPGIYFTCVRKRANSGELSKGITNKALLENKEEHKLYVSAPDYGILKNYGKYVENTALLDTTDEIKEIVPLTRSFNYTSTPQGYANVFASQYSAEPLKVAVLTSNALEIYCYRTPDEVFESLIENPLPFIHSYGLSEACSTALYLACKFNKSEHIKSSALAFFSAGIPGVVEIKPKSSRESGSVPPISQNLFDKSGECDGIVLSPRFYGSALLITRLFSQIWEERVFVFKRASKTEKMDAFGISITRPQVEYYLSSISVLADFFNIHRPSFVSFVPPKGSNAITASDAESIAMNALILLINSIKDALSLINVFYEDIDAFKSLLNTLMGAGGVYDSKTREYFFDLKFHDLFTPNAKTKQLIKEILIEVVNANIASGTSADYIVNVLKERFG
B5: Nup53 53core (near-intact Nup53 construct encompassing the N- and C-terminal IDRs and the RRM domain) (domain or fragment)
chain: SDLGTVVFDSNEAPPKTSLADWQKEDGIFSSKTDNIEDPNLSSNITFDGKPTATPSPFRPLEKTSRILNFFDKNTKTTPNTASSEASAGSKEGASTNWDDHAIIIFGYPETIANSIILHFANFGEILEDFRVIKDFKKLNSKNMSKSPSLTAQKYPIYTGDGWVKLTYKSELSKSRALQENGIIMNGTLIGCVSYSPAALKQLASLKKSEEIINNKTSSQTSLSSKDLSNYRKTEGIFEKAKAKAVTSKVRNAEFKVSKNSTSFKNPRRLEIKDGRSLFLRNRGKIHS

Data set [1] deals with human Nup35 RRM domain (human). Put plainly: SEC-MALS; human Nup35 RRM domain at 15 mg/ml on Superdex 200 10/300 GL in the ITC binding buffer, room temperature. (SEC sorts molecules by how far they enter the pores of the column.)
For data set [2], the target named is T1, Kap121 (full-length). In words: ITC; single titrations, single-site 1:1 binding model where fitted; 20 mM Hepes pH 7.5, 150 mM NaCl, 0.5 mM TCEP; 15°C; Kap121 150 μM with Nup53 fragments 15 μM. Conditions: both partners purified. In general terms: Isothermal titration calorimetry measures the heat released or taken up as one component is titrated into another.

Data set [3] concerns the target T2, Nup53 fragment 53NTD (N-terminal IDR). The data set is described as above. Conditions: both partners purified.
The target in data set [4] is T4, 53core·Kap121 complex (stoichiometric 53core:Kap121 mixture) (Saccharomyces cerevisiae, UniProt Q03790 1-475; P32337 1-1089). In words: ITC; Nic96 titrations into 53core:Kap121 mixtures, global analysis with a multiple-equilibrium model that separates monomeric and dimeric 53core·Kap121 complexes; 15°C. Conditions: both partners purified.
In data set [5] the target is B5. Put plainly: ITC; single titrations, single-site 1:1 binding model where fitted; 20 mM Hepes pH 7.5, 150 mM NaCl, 0.5 mM TCEP; 15°C; Kap121 150 μM with Nup53 fragments 15 μM. Conditions: both partners purified.
In data set [6] the target is 53core·HsKapβ1 complex (stoichiometric 53core:HsKapβ1 mixture) (Saccharomyces cerevisiae | human, UniProt Q03790 1-475; Q14974 1-876). In words: ITC; Nic96 titrated into stoichiometric 53core:Kap121 or 53core:HsKapβ1 mixtures; single-site 1:1 model; apparent constants; 15°C. Conditions: both partners purified.
Data set [7] deals with T4, 53core·Kap121 complex (stoichiometric …). Described as above. Conditions: both partners purified.
For data set [8], the target named is T3, Kap121 (full-length) (Saccharomyces …). In words: ITC; 53C·Kap121 forward and reverse titrations at various protein concentrations, global analysis with a two-mode binding model (1:1 and 2:1 53C:Kap121); 20 mM Hepes pH 7.5, 150 mM NaCl, 0.5 mM TCEP; 15°C.
The target in the data set “Nup53 fragment 53CTD” is B1. Put plainly: ITC; single titrations, single-site 1:1 binding model where fitted; 20 mM Hepes pH 7.5, 150 mM NaCl, 0.5 mM TCEP; 15°C; Kap121 150 μM with Nup53 fragments 15 μM. Conditions: both partners purified.
Data set [9] deals with the molecule itself. Put plainly: ITC; dimer to monomers: concentrated 53core injected in 2-μl increments into buffer, three protein concentrations, monomer-dimer equilibrium model; constant printed for 2A ↔ A2; 15°C.
For data set [10], the target named is T1, Kap121 (full-length). Put plainly: ITC; forward and reverse titrations with Kap121 at various protein concentrations, global analysis with a multiple-equilibrium model (53core dimerization, monomer constants fixed at the 53C values); 15°C. Conditions: both partners purified.
Data set [11] concerns the molecule itself. In words: ITC; dimer to monomers: concentrated 53core injected in 2-μl increments into buffer, three protein concentrations, monomer-dimer equilibrium model; constant printed for 2A ↔ A2; 15°C. The source holds these as a separate data set.

Where “and” joins values, the source holds several entries; their conditions need not be identical. Identical values can stand only once.

Chain of 53core·HsKapβ1 complex (stoichiometric 53core:HsKapβ1 mixture) (Q14974 1-442, one chain of several): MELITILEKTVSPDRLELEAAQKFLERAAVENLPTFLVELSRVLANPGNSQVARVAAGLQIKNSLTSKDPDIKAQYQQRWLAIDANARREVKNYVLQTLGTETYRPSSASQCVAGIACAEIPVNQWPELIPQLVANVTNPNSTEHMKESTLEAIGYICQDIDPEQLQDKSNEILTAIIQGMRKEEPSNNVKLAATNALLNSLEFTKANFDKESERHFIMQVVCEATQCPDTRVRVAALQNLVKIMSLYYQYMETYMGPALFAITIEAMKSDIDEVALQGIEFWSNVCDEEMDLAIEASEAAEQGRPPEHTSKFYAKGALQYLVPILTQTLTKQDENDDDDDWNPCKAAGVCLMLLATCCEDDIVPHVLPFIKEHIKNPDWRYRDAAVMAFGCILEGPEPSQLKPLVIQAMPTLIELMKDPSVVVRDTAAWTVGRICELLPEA

The molecule “human Nup35 RRM domain (domain or fragment)” showed a stoichiometry N in data set [1] of 2.

Take B1: in the data set with Kap121 (full-length) [2], the Ka came out at 210000 M⁻¹, the “fold weaker than the canonical NLS peptide” value was ~45 fold and the “stoichiometry N” value was 1.

For B2, in data set [3], the Ka came out at 700000 M⁻¹ and the “stoichiometry N” value came out at 1. Further, in data set [4], the “KA for the dimeric 53core·Kap121 complexes (A2Bi + C ↔ A2BiC)” value amounted to 120000 M⁻¹, the “KA for the monomeric 53core·Kap121 complex (AB + C ↔ ABC)” value turned out to be 200000 M⁻¹, the “dH for the dimeric 53core·Kap121 complexes (A2Bi + C ↔ A2BiC)” value was -2.5 kcal/mol and the “dH for the monomeric 53core·Kap121 complex (AB + C ↔ ABC)” value is -6.7 kcal/mol. For the same molecule, in data set [5], the Ka was 990000 M⁻¹ and the dH is -4.4 kcal/mol. In [6], the Ka worked out at 100000 M⁻¹ and the dH was -5.1 kcal/mol. In addition, in data set [7], the Ka is 130000 M⁻¹ and the dH was -5.2 kcal/mol.

Turning to B3, in data set [8], the K of the 2:1 mode (2A + B ↔ A2*B) is 1.9e+11 M^-2, the KA of the 1:1 mode (A + B ↔ AB) turned out to be 4.2e+06 M⁻¹, the KA per IDR binding (square root of the 2:1 constant) came to 440000 M⁻¹ and the dH of the 1:1 mode (A + B ↔ AB) was -2.7 kcal/mol. In data set [8], the dH of the 2:1 mode (2A + B ↔ A2*B) amounted to 4.2 kcal/mol; the stoichiometry N is 2 and 1.

Consider B4, for which, in the data set with Nup53 fragment 53CTD, the Ka came to 1.6e+06 M⁻¹ and the “stoichiometry N” value was 1. In data set [5], the Ka was determined as 1.1e+06 M⁻¹ and the dH was -10.1 kcal/mol.

Consider B5, for which, in data set [9], the “stoichiometry N” value came to 2. In the data set with Kap121 (full-length) [10], the “KA of the 53core dimer with one Kap121 (A2 + B ↔ A2B)” value came to 5.6e+07 M⁻¹, the “dH of A2 + 2B ↔ A2B2” value is -1.3 kcal/mol and the “dH of A2 + B ↔ A2B” value turned out to be 16.3 kcal/mol. In data set [11], this molecule registered a Ka of 10000 M⁻¹ and a dH of 6.5 kcal/mol.
